Data from patent publication US20230192830A1.

Key:
Conditions in all cases: remark: other sources report otherwise
[1] = molecular target: iPHF, P10636; experiment: Octet BLI, antibody on biosensor, iPHF in solution
[2] = molecular target: T1, enriched paired helical filament tau protein (ePHF) (human), P10636; experiment: direct ELISA, ePHF coated
[3] = molecular target: T1, enriched paired helical filament tau …; experiment: follow up analysis, method not stated

iPHF, P10636, sequence (P10636 other isoform, or with tags, fused parts or gaps): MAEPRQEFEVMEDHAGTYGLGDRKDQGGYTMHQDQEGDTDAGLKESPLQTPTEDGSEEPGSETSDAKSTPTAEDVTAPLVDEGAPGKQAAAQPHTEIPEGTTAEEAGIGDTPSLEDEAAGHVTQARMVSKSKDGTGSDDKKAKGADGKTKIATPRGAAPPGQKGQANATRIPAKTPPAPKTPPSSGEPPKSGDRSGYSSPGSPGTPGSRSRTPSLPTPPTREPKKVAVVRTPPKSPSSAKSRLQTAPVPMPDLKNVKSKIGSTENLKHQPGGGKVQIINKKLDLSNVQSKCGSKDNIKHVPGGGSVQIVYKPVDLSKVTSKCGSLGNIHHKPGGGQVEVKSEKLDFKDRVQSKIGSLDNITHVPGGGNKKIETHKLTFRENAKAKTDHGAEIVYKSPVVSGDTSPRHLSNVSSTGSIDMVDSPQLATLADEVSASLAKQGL
T1 sequence (P10636 other isoform, or with tags, fused parts or gaps limits assumed): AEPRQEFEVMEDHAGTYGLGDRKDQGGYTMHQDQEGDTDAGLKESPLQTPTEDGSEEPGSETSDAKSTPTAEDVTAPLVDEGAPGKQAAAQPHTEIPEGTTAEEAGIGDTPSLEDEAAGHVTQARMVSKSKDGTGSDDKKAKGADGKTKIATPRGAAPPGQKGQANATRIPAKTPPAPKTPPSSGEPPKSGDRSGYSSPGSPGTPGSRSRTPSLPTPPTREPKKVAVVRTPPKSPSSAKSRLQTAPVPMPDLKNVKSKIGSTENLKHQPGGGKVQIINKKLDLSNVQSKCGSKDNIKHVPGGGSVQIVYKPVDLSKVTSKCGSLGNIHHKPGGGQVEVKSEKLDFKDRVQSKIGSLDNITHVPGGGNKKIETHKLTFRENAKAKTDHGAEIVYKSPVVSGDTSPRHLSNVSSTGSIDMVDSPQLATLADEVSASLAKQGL

| Kd [1] | EC50 [2] | selectivity for ePHF over wild type tau [3] | Binder |
| --- | --- | --- | --- |
| 300 pM | – | – | V0022 (antibody, mouse IgG1, V domains shown) VH: QVQLQQPGTELVKPGSSVNLSCKASGFTFTRYWMHWVKERPGHGLEWIGNINPNNGGTDFNEKFKNKATLTVHKSSTTVFIQLSSLTSEDSAVYYCARGTGTGAMDYWGQGTSVTVSS VL: DVVMTQTPLSLPVSLGDQASISCRSSQSLVHNNGITYLYWYLQKPGQSPKLLIYRVSNRFSGVPDRFGGSGSGTDFTLKISRVEAEDLGVYFCFQGTHVPRTFGGGTKLEIK |
| 4000 pM | – | – | V0023 (antibody, mouse IgG1, V domains shown) VH: QVQLQQPGTELVKPGASVKLSCKASGYTFTIFWMHWVKQRPGHGLEWIGKINPNNGGGDYNEKFKSKATLTVDKSSTTAYLQLSSLTSEDSAVYYCARGTGTGAMDYWGQGTSVTVSS VL: DVVMTQTPLSLPVSLGDHASISCRSSQSLVHSNGITHLYWYLQRPGQTPKLLIYRVSNRFSGVPDRFSGSGSGTDFTLKISSVEAEDLGVYFCFQGTHVPRTFGGGTKLEIE |
| – | 125 pM | > 100 fold | V0024 (antibody, mouse IgG1, V domains shown) VH: QVQLQQPGTELVKPGASVKLSCKASGYTFTRFWMHWVKQRPGQGLEWIGNINPNNGGTDNNERFKSKATLTVDRSSSTAYMQLSSLTSEDSAVYYCARGTGTGAMDYWGQGTSVTVSS VL: DVVMTQTPLSLPVSLGDQASISCRSSQSLVHSNGNTHLYWYLQKPGQSPKLLIYRVSSRFSGVPDRFSGSGSGTDFTLKISRVEAEDLGVYFCFQGTHVPRTFGGGTKLEIK |
